Data published in the RNAGym collection of RNA variant scans (doi:10.1021/acssynbio.7b00057).

B1: Pistol ribozyme (parent)
chain: GGGUCGUUGUUCCAUAAUCGCGUGGAUAUGGCACGCAAGUUUCUACCGGGCACCGUAAAUGUCCGACUGGAGCCGUUCGGGCGGCUAUAAACAGACCUCAGGCCCGAAGCGUGGCGGCACCUGCCGCCGGUGGUAAAAAAGAUCGGAAGAGCACACGUCU

Variants of: B1
Experiment: aptazyme ON/OFF ratio, guanine; higher = stronger switching; co-transcriptional cleavage with and without guanine

| Variant | aptazyme ON/OFF ratio |
| --- | --- |
| GGGUCGCCCUACGAUAAUCGCGUGGAUAUGGCACGCAAGUUUCUACCGGGCACCGUAAAUGUCCGACUGGAGCCGUUCGGGCGGCUAUAAACAGACCUCAGGCCCGAAGCGUGGCGGCACCUGCCGCCGGUGGUAAAAAAGAUCGGAAGAGCACACGUCU | 1.09 |
| GGGUCGGCAUAAGAUAAUCGCGUGGAUAUGGCACGCAAGUUUCUACCGGGCACCGUAAAUGUCCGACUGGAGCCGUUCGGGCGGCUAUAAACAGACCUCAGGCCCGAAGCGUGGCGGCACCUGCCGCCGGUGGUAAAAAAGAUCGGAAGAGCACACGUCU | 1.07 |
| GGGUCGUUGGGGAAUAAUCGCGUGGAUAUGGCACGCAAGUUUCUACCGGGCACCGUAAAUGUCCGACUGGAGCCGUUCGGGCGGCUAUAAACAGACCUCAGGCCCGAAGCGUGGCGGCACCUGCCGCCGGUGGUAAAAAAGAUCGGAAGAGCACACGUCU | 1.1 |
| GGGUCGGAGUCAAAUAAUCGCGUGGAUAUGGCACGCAAGUUUCUACCGGGCACCGUAAAUGUCCGACUGGAGCCGUUCGGGCGGCUAUAAACAGACCUCAGGCCCGAAGCGUGGCGGCACCUGCCGCCGGUGGUAAAAAAGAUCGGAAGAGCACACGUCU | 1.23 |
| GGGUCGGGGGUCAAUAAUCGCGUGGAUAUGGCACGCAAGUUUCUACCGGGCACCGUAAAUGUCCGACUGGAGCCGUUCGGGCGGCUAUAAACAGACCUCAGGCCCGAAGCGUGGCGGCACCUGCCGCCGGUGGUAAAAAAGAUCGGAAGAGCACACGUCU | 1.45 |
| GGGUCGAGAGGCAAUAAUCGCGUGGAUAUGGCACGCAAGUUUCUACCGGGCACCGUAAAUGUCCGACUGGAGCCGUUCGGGCGGCUAUAAACAGACCUCAGGCCCGAAGCGUGGCGGCACCUGCCGCCGGUGGUAAAAAAGAUCGGAAGAGCACACGUCU | 1.06 |
| GGGUCGAUAUAGAAUAAUCGCGUGGAUAUGGCACGCAAGUUUCUACCGGGCACCGUAAAUGUCCGACUGGAGCCGUUCGGGCGGCUAUAAACAGACCUCAGGCCCGAAGCGUGGCGGCACCUGCCGCCGGUGGUAAAAAAGAUCGGAAGAGCACACGUCU | 1.19 |
| GGGUCGCUAGUGUAUAAUCGCGUGGAUAUGGCACGCAAGUUUCUACCGGGCACCGUAAAUGUCCGACUGGAGCCGUUCGGGCGGCUAUAAACAGACCUCAGGCCCGAAGCGUGGCGGCACCUGCCGCCGGUGGUAAAAAAGAUCGGAAGAGCACACGUCU | 1.15 |
| GGGUCGGUACGCCAUAAUCGCGUGGAUAUGGCACGCAAGUUUCUACCGGGCACCGUAAAUGUCCGACUGGAGCCGUUCGGGCGGCUAUAAACAGACCUCAGGCCCGAAGCGUGGCGGCACCUGCCGCCGGUGGUAAAAAAGAUCGGAAGAGCACACGUCU | 1.68 |
| GGGUCGAGUCUUGAUAAUCGCGUGGAUAUGGCACGCAAGUUUCUACCGGGCACCGUAAAUGUCCGACUGGAGCCGUUCGGGCGGCUAUAAACAGACCUCAGGCCCGAAGCGUGGCGGCACCUGCCGCCGGUGGUAAAAAAGAUCGGAAGAGCACACGUCU | 1.54 |
| GGGUCGUGCUUUCAUAAUCGCGUGGAUAUGGCACGCAAGUUUCUACCGGGCACCGUAAAUGUCCGACUGGAGCCGUUCGGGCGGCUAUAAACAGACCUCAGGCCCGAAGCGUGGCGGCACCUGCCGCCGGUGGUAAAAAAGAUCGGAAGAGCACACGUCU | 1.07 |
| GGGUCGGUCCGUAAUAAUCGCGUGGAUAUGGCACGCAAGUUUCUACCGGGCACCGUAAAUGUCCGACUGGAGCCGUUCGGGCGGCUAUAAACAGACCUCAGGCCCGAAGCGUGGCGGCACCUGCCGCCGGUGGUAAAAAAGAUCGGAAGAGCACACGUCU | 1.33 |
| GGGUCGCGGUCUUAUAAUCGCGUGGAUAUGGCACGCAAGUUUCUACCGGGCACCGUAAAUGUCCGACUGGAGCCGUUCGGGCGGCUAUAAACAGACCUCAGGCCCGAAGCGUGGCGGCACCUGCCGCCGGUGGUAAAAAAGAUCGGAAGAGCACACGUCU | 1.35 |
| GGGUCGGGCGCCUAUAAUCGCGUGGAUAUGGCACGCAAGUUUCUACCGGGCACCGUAAAUGUCCGACUGGAGCCGUUCGGGCGGCUAUAAACAGACCUCAGGCCCGAAGCGUGGCGGCACCUGCCGCCGGUGGUAAAAAAGAUCGGAAGAGCACACGUCU | 1.05 |
| GGGUCGCCCCGUUAUAAUCGCGUGGAUAUGGCACGCAAGUUUCUACCGGGCACCGUAAAUGUCCGACUGGAGCCGUUCGGGCGGCUAUAAACAGACCUCAGGCCCGAAGCGUGGCGGCACCUGCCGCCGGUGGUAAAAAAGAUCGGAAGAGCACACGUCU | 1.1 |
| GGGUCGGAGUCGCAUAAUCGCGUGGAUAUGGCACGCAAGUUUCUACCGGGCACCGUAAAUGUCCGACUGGAGCCGUUCGGGCGGCUAUAAACAGACCUCAGGCCCGAAGCGUGGCGGCACCUGCCGCCGGUGGUAAAAAAGAUCGGAAGAGCACACGUCU | 1.24 |
| GGGUCGACUGUGGAUAAUCGCGUGGAUAUGGCACGCAAGUUUCUACCGGGCACCGUAAAUGUCCGACUGGAGCCGUUCGGGCGGCUAUAAACAGACCUCAGGCCCGAAGCGUGGCGGCACCUGCCGCCGGUGGUAAAAAAGAUCGGAAGAGCACACGUCU | 1.14 |
| GGGUCGGGAUUGUAUAAUCGCGUGGAUAUGGCACGCAAGUUUCUACCGGGCACCGUAAAUGUCCGACUGGAGCCGUUCGGGCGGCUAUAAACAGACCUCAGGCCCGAAGCGUGGCGGCACCUGCCGCCGGUGGUAAAAAAGAUCGGAAGAGCACACGUCU | 1.3 |
